# Measurements as given in PMC7801515.
# Molecular target: P2C-1F11 monoclonal antibody (human)
# Assay: SPR
substance,measurement,value
"SARS-CoV-2 receptor-binding domain (RBD), residues Arg319 to Lys529 (from UniProt P0DTC2 319-529) (domain or fragment)",Kd,1.72 nM
